Starred links: 1 amine or outer side, 2 acyl side, 3 side chain; linkers in the order of their positions; H or OH if unused. Residues, ends and D or L forms follow the SMILES beside them. Groups on a side chain read outwards from the residue. *: point of attachment. C20 diacid = O=C(O)CCCCCCCCCCCCCCCCCCC(=O)*; C18 diacid = O=C(O)CCCCCCCCCCCCCCCCC(=O)*; γGlu = O=C(O)[C@H](CCC(=O)[*:2])N[*:1]; AEEA = NCCOCCOCC(=O)O
Molecular target: human GLP-1R (hGLP-1R) (Homo sapiens, UniProt P43220)
Test: In vitro cell activity: cAMP inhibition (LANCE Ultra cAMP kit) in CHO cells expressing human GLP-1R, with GLP-1 added
Format: cell-based
Settings: relative activity from IC50 of cAMP inhibition; 0.1 nM GLP-1 added; comparative substance exendin-3 (9-39) amide = 100
Experimental: The human GLP-1R-expressed CHO cells were cultured in a 384-well plate for 24 hours. Thereafter, the culture was removed, and 10 µL of each serially diluted substance was added to the plate, followed by incubation at room temperature for 30 minutes. Then, 5 µL of Eu-cAMP tracer was added, and then 5 µL of a buffer containing cAMP antibodies was added, followed by incubation at room temperature for 60 minutes. […]

Sequence of human GLP-1R (hGLP-1R) (P43220 24-463): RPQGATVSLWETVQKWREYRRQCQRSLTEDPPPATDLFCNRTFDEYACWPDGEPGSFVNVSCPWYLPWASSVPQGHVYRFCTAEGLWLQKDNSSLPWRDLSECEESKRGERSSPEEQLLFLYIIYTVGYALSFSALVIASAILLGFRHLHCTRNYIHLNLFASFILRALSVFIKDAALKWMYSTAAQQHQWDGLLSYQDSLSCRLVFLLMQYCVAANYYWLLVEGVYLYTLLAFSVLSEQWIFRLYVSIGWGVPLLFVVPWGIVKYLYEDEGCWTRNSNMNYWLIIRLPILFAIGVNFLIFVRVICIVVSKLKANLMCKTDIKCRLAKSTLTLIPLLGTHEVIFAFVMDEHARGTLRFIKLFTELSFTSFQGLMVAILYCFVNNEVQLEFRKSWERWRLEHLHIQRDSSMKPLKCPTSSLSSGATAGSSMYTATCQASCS

| Molecule | In vitro activity compared with comparative substance (%) |
| --- | --- |
| CC[C@H](C)[C@H](NC(=O)[C@H](Cc1ccccc1)NC(=O)[C@H](CC(C)C)NC(=O)[C@H](CCCNC(=N)N)NC(=O)[C@@H](NC(=O)[C@H](C)NC(=O)[C@H](CCC(=O)O)NC(=O)[C@H](CCC(=O)O)NC(=O)[C@H](CCC(=O)O)NC(=O)[C@H](CC(C)C)NC(=O)[C@H](Cc1ccc(O)cc1)NC(=O)[C@H](CO)NC(=O)[C@H](CO)NC(=O)[C@@H](NC(=O)[C@H](CC(=O)O)NC(C)=O)C(C)C)C(C)C)C(=O)N[C@@H](C)C(=O)N[C@@H](Cc1c[nH]c2ccccc12)C(=O)N[C@@H](CC(C)C)C(=O)N[C@H](C(=O)N[C@@H](CCCCN)C(=O)NCC(=O)NCC(=O)N1CCC[C@H]1C(=O)N[C@@H](CO)C(=O)N[C@@H](CO)C(=O)NCC(=O)N[C@@H](C)C(=O)N1CCC[C@H]1C(=O)N1CCC[C@H]1C(=O)N1CCC[C@H]1C(=O)N[C@@H](CO)C(=O)N[C@@H](CS)C(N)=O)C(C)C [SEQ ID NO: 12] (Ac-DVSSYLEEEAVRLFIAWLVKGGPSSGAPPPSC-NH2) | 189.3 |
| CC[C@H](C)[C@H](NC(=O)[C@H](Cc1ccccc1)NC(=O)[C@H](CC(C)C)NC(=O)[C@H](CCCNC(=N)N)NC(=O)[C@@H](NC(=O)[C@H](C)NC(=O)[C@H](CCC(=O)O)NC(=O)[C@H](CCC(=O)O)NC(=O)[C@H](CCC(=O)O)NC(=O)[C@H](CC(C)C)NC(=O)[C@H](Cc1ccc(O)cc1)NC(=O)[C@H](CO)NC(=O)[C@H](CO)NC(=O)[C@@H](NC(=O)[C@H](CC(=O)O)NC(C)=O)C(C)C)C(C)C)C(=O)N[C@@H](C)C(=O)N[C@@H](Cc1c[nH]c2ccccc12)C(=O)N[C@@H](CC(C)C)C(=O)N[C@H](C(=O)N[C@@H](CCCCN)C(=O)NCC(=O)NCC(=O)N1CCC[C@H]1C(=O)N[C@@H](CO)C(=O)N[C@@H](CO)C(=O)NCC(=O)N[C@@H](C)C(=O)N1CCC[C@H]1C(=O)N1CCC[C@H]1C(=O)N1CCC[C@H]1C(=O)N[C@@H](CO)C(N)=O)C(C)C [SEQ ID NO: 8] (Ac-DVSSYLEEEAVRLFIAWLVKGGPSSGAPPPS-NH2) | 238.5 |
| CC[C@H](C)[C@H](NC(=O)[C@H](Cc1ccccc1)NC(=O)[C@H](CC(C)C)NC(=O)[C@H](CCCNC(=N)N)NC(=O)[C@@H](NC(=O)[C@H](C)NC(=O)[C@H](CCC(=O)O)NC(=O)[C@H](CCC(=O)O)NC(=O)[C@H](CCC(=O)O)NC(=O)[C@H](CC(C)C)NC(=O)[C@H](Cc1ccc(O)cc1)NC(=O)[C@H](CO)NC(=O)[C@H](CO)NC(=O)[C@@H](NC(=O)[C@H](CC(=O)O)NC(C)=O)C(C)C)C(C)C)C(=O)N[C@@H](C)C(=O)N[C@@H](Cc1c[nH]c2ccccc12)C(=O)N[C@@H](CC(C)C)C(=O)N[C@H](C(=O)N[C@@H](CCCCNC(=O)COCCOCCNC(=O)COCCOCCNC(=O)CC[C@H](NC(=O)CCCCCCCCCCCCCCCCC(=O)O)C(=O)O)C(=O)NCC(=O)NCC(=O)N1CCC[C@H]1C(=O)N[C@@H](CO)C(=O)N[C@@H](CO)C(=O)NCC(=O)N[C@@H](C)C(=O)N1CCC[C@H]1C(=O)N1CCC[C@H]1C(=O)N1CCC[C@H]1C(=O)N[C@@H](CO)C(N)=O)C(C)C [SEQ ID NO: 15] | 14.3 |

Molecular target: human GLP-1 receptor (GLP-1R) (human, UniProt P43220 24-463)
Test: cell-based or functional assay
Settings: not given

| Molecule | In vitro activity compared with comparative substance (%); IC50 of cAMP inhibition in hGLP-1R CHO cells with 0.1 nM GLP-1 [%] |
| --- | --- |
| Ac-DVSSYLEEQAVREFIAWLVKGGPSSGAPPPS-NH2 [GLP-1R antagonist analog (SEQ ID NO: 9)] | 189 |
| Ac-DVSSYLEEEAVRLFIAWLVKGGPSSGAPPPSK([AEEA-AEEA-γGlu-C20 diacid])-NH2 (SMILES CC[C@H](C)[C@H](NC(=O)[C@H](Cc1ccccc1)NC(=O)[C@H](CC(C)C)NC(=O)[C@H](CCCNC(=N)N)NC(=O)[C@@H](NC(=O)[C@H](C)NC(=O)[C@H](CCC(=O)O)NC(=O)[C@H](CCC(=O)O)NC(=O)[C@H](CCC(=O)O)NC(=O)[C@H](CC(C)C)NC(=O)[C@H](Cc1ccc(O)cc1)NC(=O)[C@H](CO)NC(=O)[C@H](CO)NC(=O)[C@@H](NC(=O)[C@H](CC(=O)O)NC(C)=O)C(C)C)C(C)C)C(=O)N[C@@H](C)C(=O)N[C@@H](Cc1c[nH]c2ccccc12)C(=O)N[C@@H](CC(C)C)C(=O)N[C@H](C(=O)N[C@@H](CCCCN)C(=O)NCC(=O)NCC(=O)N1CCC[C@H]1C(=O)N[C@@H](CO)C(=O)N[C@@H](CO)C(=O)NCC(=O)N[C@@H](C)C(=O)N1CCC[C@H]1C(=O)N1CCC[C@H]1C(=O)N1CCC[C@H]1C(=O)N[C@@H](CO)C(=O)N[C@@H](CCCCNC(=O)COCCOCCNC(=O)COCCOCCNC(=O)CC[C@H](NC(=O)CCCCCCCCCCCCCCCCCCC(=O)O)C(=O)O)C(N)=O)C(C)C) [acylated GLP-1R antagonist analog conjugate (SEQ ID NO: 20)] | 15.1 |
| Ac-DVSSYLEEEAVRLFIAWLVKGGPSSGAPPPSK([AEEA-AEEA-γGlu-C18 diacid])-NH2 (SMILES CC[C@H](C)[C@H](NC(=O)[C@H](Cc1ccccc1)NC(=O)[C@H](CC(C)C)NC(=O)[C@H](CCCNC(=N)N)NC(=O)[C@@H](NC(=O)[C@H](C)NC(=O)[C@H](CCC(=O)O)NC(=O)[C@H](CCC(=O)O)NC(=O)[C@H](CCC(=O)O)NC(=O)[C@H](CC(C)C)NC(=O)[C@H](Cc1ccc(O)cc1)NC(=O)[C@H](CO)NC(=O)[C@H](CO)NC(=O)[C@@H](NC(=O)[C@H](CC(=O)O)NC(C)=O)C(C)C)C(C)C)C(=O)N[C@@H](C)C(=O)N[C@@H](Cc1c[nH]c2ccccc12)C(=O)N[C@@H](CC(C)C)C(=O)N[C@H](C(=O)N[C@@H](CCCCN)C(=O)NCC(=O)NCC(=O)N1CCC[C@H]1C(=O)N[C@@H](CO)C(=O)N[C@@H](CO)C(=O)NCC(=O)N[C@@H](C)C(=O)N1CCC[C@H]1C(=O)N1CCC[C@H]1C(=O)N1CCC[C@H]1C(=O)N[C@@H](CO)C(=O)N[C@@H](CCCCNC(=O)COCCOCCNC(=O)COCCOCCNC(=O)CC[C@H](NC(=O)CCCCCCCCCCCCCCCCC(=O)O)C(=O)O)C(N)=O)C(C)C) [acylated GLP-1R antagonist analog conjugate (SEQ ID NO: 18)] | 19.8 |
| Ac-TSDVSSYLEEEAVRLFIAWLVKGGPSSGAPPPS-NH2 [GLP-1R antagonist analog (SEQ ID NO: 7)] | 196 |
| Ac-DVSSYLEEEAVRLFIAWLVK([AEEA-AEEA-γGlu-C18 diacid])GGPSSGAPPPS-NH2 (SMILES CC[C@H](C)[C@H](NC(=O)[C@H](Cc1ccccc1)NC(=O)[C@H](CC(C)C)NC(=O)[C@H](CCCNC(=N)N)NC(=O)[C@@H](NC(=O)[C@H](C)NC(=O)[C@H](CCC(=O)O)NC(=O)[C@H](CCC(=O)O)NC(=O)[C@H](CCC(=O)O)NC(=O)[C@H](CC(C)C)NC(=O)[C@H](Cc1ccc(O)cc1)NC(=O)[C@H](CO)NC(=O)[C@H](CO)NC(=O)[C@@H](NC(=O)[C@H](CC(=O)O)NC(C)=O)C(C)C)C(C)C)C(=O)N[C@@H](C)C(=O)N[C@@H](Cc1c[nH]c2ccccc12)C(=O)N[C@@H](CC(C)C)C(=O)N[C@H](C(=O)N[C@@H](CCCCNC(=O)COCCOCCNC(=O)COCCOCCNC(=O)CC[C@H](NC(=O)CCCCCCCCCCCCCCCCC(=O)O)C(=O)O)C(=O)NCC(=O)NCC(=O)N1CCC[C@H]1C(=O)N[C@@H](CO)C(=O)N[C@@H](CO)C(=O)NCC(=O)N[C@@H](C)C(=O)N1CCC[C@H]1C(=O)N1CCC[C@H]1C(=O)N1CCC[C@H]1C(=O)N[C@@H](CO)C(N)=O)C(C)C) [acylated GLP-1R antagonist analog conjugate (SEQ ID NO: 15)] | 14.3 |
| Ac-DVSSYLEEEAARLFIAWLVK([AEEA-AEEA-γGlu-C18 diacid])GGPSSGAPPPS-NH2 (SMILES CC[C@H](C)[C@H](NC(=O)[C@H](Cc1ccccc1)NC(=O)[C@H](CC(C)C)NC(=O)[C@H](CCCNC(=N)N)NC(=O)[C@H](C)NC(=O)[C@H](C)NC(=O)[C@H](CCC(=O)O)NC(=O)[C@H](CCC(=O)O)NC(=O)[C@H](CCC(=O)O)NC(=O)[C@H](CC(C)C)NC(=O)[C@H](Cc1ccc(O)cc1)NC(=O)[C@H](CO)NC(=O)[C@H](CO)NC(=O)[C@@H](NC(=O)[C@H](CC(=O)O)NC(C)=O)C(C)C)C(=O)N[C@@H](C)C(=O)N[C@@H](Cc1c[nH]c2ccccc12)C(=O)N[C@@H](CC(C)C)C(=O)N[C@H](C(=O)N[C@@H](CCCCNC(=O)COCCOCCNC(=O)COCCOCCNC(=O)CC[C@H](NC(=O)CCCCCCCCCCCCCCCCC(=O)O)C(=O)O)C(=O)NCC(=O)NCC(=O)N1CCC[C@H]1C(=O)N[C@@H](CO)C(=O)N[C@@H](CO)C(=O)NCC(=O)N[C@@H](C)C(=O)N1CCC[C@H]1C(=O)N1CCC[C@H]1C(=O)N1CCC[C@H]1C(=O)N[C@@H](CO)C(N)=O)C(C)C) [acylated GLP-1R antagonist analog conjugate (SEQ ID NO: 16)] | 13.5 |
| Ac-DVSSYLEEEAVRLFIAWLVKGGPSSGAPPPS-NH2 [GLP-1R antagonist analog (SEQ ID NO: 8)] | 238 |
| DLSSYLEEEAVRLFIEWLKNGGPSSGAPPPS (N-terminus acetylated; C-terminal amide) [GLP-1R antagonist analog (SEQ ID NO: 10)] | 250 |
| DLSSQMEEEAVRLFIEWLKNGGPSSGAPPPS (N-terminus acetylated; C-terminal amide) [GLP-1R antagonist analog (SEQ ID NO: 5)] | 85 |
| Ac-DVSSYLEEEAVRLFIAWLVKGGPSSGAPPPSC-NH2 [GLP-1R antagonist analog (SEQ ID NO: 12)] | 189 |
